The text below walks through data of article PMC139967 (BMC Biochemistry, 2002).

In assay [1] the target is bovine-brain calmodulin (bovine, UniProt P62157 1-149). The assay is described as follows: other fluorescence titration.
Assay [2] concerns the target Alexa Fluor 488 calmodulin (UniProt P62157 1-149). In words: other fluorescence titration.

B1: bullfrog Myo1c IQ2 peptide (peptide)
peptide: CHMKHSAVEIQSWWRGTIGRRKAA
As a reminder, the stoichiometry N is a count of units in the complex or per binding partner. Turning to B1, the “stoichiometry N” value in assay [1] amounted to 1 peptide per calmodulin.

B2: bullfrog Myo1c IQ3 peptide (peptide)
peptide: CKRKWAVDVVRRFIKGFIYRNQPR
Broadly, the Kd is the equilibrium constant for the complex coming apart. Read a high Kd as a looser complex. For B2, the “stoichiometry N” value in assay [1] amounted to 1 peptide per calmodulin. Further, the affinity in assay [2], expressed as Kd, was 2000 nM.

B3: bullfrog Myo1c IQ1 peptide (peptide)
peptide: CRKHSIATFLQARWRGYHQRQKFL
B3: in assay [1], the “stoichiometry N” value worked out at 1 peptide per calmodulin.
